Common to all, as to experiment: RP-HPLC product quantification, Michaelis-Menten fit
Series [1] concerns the target sMAT (methionine adenosyltransferase from Sulfolobus solfataricus) (Saccharolobus solfataricus, UniProt Q980S9). It is filed as biochemical. As to conditions: 65 °C, pH 8.0, 2.5 mM ATP, 5 mM MgCl2, 40 mM KCl.
Substrate in series [2]: CSCC[C@H](N)C(=O)O
It is filed as biochemical, Saccharolobus solfataricus. As to conditions: 65 °C, pH 8.0, 2.5 mM ATP, 5 mM MgCl2, 40 mM KCl.

Substrate in series [3]: Nc1ncnc2c1ncn2[C@@H]1O[C@H](COP(=O)(O)OP(=O)(O)OP(=O)(O)O)[C@@H](O)[C@H]1O
Type of series: biochemical, Saccharolobus solfataricus. To be noted: 65 °C, pH 8.0, 2.5 mM L-methionine, 5 mM MgCl2, 40 mM KCl.

`CCSCC[C@H](N)C(=O)O` [L-ethionine, (2S)-2-amino-4-(ethylsulfanyl)butanoic acid]: in series [1], the Km (usually the concentration of substrate that gives half-maximal velocity) is 7 ± 1.6 µM.

B1: sMAT (methionine adenosyltransferase from Sulfolobus solfataricus) (Saccharolobus solfataricus P2) (protein)
chain: MRNINVQLNPLSDIEKLQVELVERKGLGHPDYIADAVAEEASRKLSLYYLKKYGVILHHNLDKTLVVGGQATPRFKGGDIIQPIYIIVAGRATTEVKTESGIDQIPVGTIIIESVKEWIRNNFRYLDAERHVIVDYKIGKGSSDLVGIFEASKRVPLSNDTSFGVGFAPLTKLEKLVYETERHLNSKQFKAKLPEVGEDIKVMGLRRGNEVDLTIAMATISELIEDVNHYINVKEQVRNQILDLASKIAPGYNVRVYVNTGDKIDKNILYLTVTGTSAEHGDDGMTGRGNRGVGLITPMRPMSLEATAGKNPVNHVGKLYNVLANLIANKIAQEVKDVKFSQVQVLGQIGRPIDDPLIANVDVITYDGKLTDETKNEISGIVDEMLSSFNKLTELILEGKATLF
Consider B1, for which, in series [2], the Michaelis-Menten constant (Km) is 2.8 ± 0.7 µM; the kcat – broadly, the maximal rate divided by the concentration of active sites – came out at 0.0487 ± 0.00117 s⁻¹; the kcat/Km (in general, the turnover number divided by the Michaelis constant) came out at 17400 ± 1670 M⁻¹ s⁻¹. In series [3], the Michaelis-Menten constant (Km) was determined as 14.5 ± 2.5 µM, the kcat was 0.0468 ± 0.00133 s⁻¹ and the kcat/Km was found to be 3230 ± 533 M⁻¹ s⁻¹.

The record behind these values is PMC4169312 (The FEBS journal, 2014).
